Experimental data taken from PMC3968367.

Columns and labels:
rKv1.3 (rat) [1] = molecular target: rKv1.3 (rat) (UniProt P15384)
rKv1.2 (rat) [2] = molecular target: rKv1.2 (rat) (UniProt P63142)
Shaker IR (Drosophila) [3] = molecular target: Shaker IR (Drosophila) (UniProt P08510)
rKv1.3 (rat) [4] = molecular target: rKv1.3 (rat) (UniProt P15384); remark: listed apart in the source
rKv1.2 (rat) [5] = molecular target: rKv1.2 (rat) (UniProt P63142); remark: listed apart in the source
Shaker IR (Drosophila) [6] = molecular target: Shaker IR (Drosophila) (UniProt P08510); remark: listed apart in the source
rKv1.1 (rat) = rKv1.1 (rat) (UniProt P10499)
rKv1.6 (rat) = rKv1.6 (rat) (UniProt P17659)
His28 = His28 (UniProt position 50, AFGRAHGKCMN); settings: free toxin (inferred); cited from earlier work

Sequence of Shaker IR (Drosophila) (P08510 whole entry): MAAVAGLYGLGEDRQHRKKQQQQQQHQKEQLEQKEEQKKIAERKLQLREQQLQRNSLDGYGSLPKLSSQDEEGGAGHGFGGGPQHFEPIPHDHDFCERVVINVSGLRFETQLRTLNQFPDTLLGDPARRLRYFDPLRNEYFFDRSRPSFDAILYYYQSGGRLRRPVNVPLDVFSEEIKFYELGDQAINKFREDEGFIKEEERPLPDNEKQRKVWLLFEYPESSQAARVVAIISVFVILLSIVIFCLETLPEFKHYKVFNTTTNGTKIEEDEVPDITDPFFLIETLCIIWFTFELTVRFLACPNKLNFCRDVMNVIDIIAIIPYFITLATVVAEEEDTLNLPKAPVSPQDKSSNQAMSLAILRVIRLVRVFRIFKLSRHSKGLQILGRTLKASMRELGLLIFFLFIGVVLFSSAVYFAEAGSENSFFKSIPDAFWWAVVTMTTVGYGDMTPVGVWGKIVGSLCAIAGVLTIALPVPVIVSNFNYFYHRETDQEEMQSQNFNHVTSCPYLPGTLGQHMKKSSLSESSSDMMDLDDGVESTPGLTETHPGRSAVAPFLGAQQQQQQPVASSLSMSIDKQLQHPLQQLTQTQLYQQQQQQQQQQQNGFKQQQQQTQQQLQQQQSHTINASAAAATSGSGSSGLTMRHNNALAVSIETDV
Sequence of rKv1.3 (rat) (P15384 whole entry): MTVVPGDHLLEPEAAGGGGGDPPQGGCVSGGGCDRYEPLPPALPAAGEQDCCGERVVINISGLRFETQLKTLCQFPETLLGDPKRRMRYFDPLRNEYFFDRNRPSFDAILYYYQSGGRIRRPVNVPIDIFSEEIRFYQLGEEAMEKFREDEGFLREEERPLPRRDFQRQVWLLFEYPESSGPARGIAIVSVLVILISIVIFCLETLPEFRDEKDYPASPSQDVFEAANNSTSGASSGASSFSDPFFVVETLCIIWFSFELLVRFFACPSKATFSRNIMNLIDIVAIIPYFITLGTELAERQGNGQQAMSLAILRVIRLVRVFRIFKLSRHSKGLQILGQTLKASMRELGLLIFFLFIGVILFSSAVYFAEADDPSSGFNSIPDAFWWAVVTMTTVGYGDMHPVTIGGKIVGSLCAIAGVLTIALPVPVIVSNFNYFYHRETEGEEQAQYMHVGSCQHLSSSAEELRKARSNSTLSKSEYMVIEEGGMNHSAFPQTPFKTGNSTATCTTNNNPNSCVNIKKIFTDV
Sequence of rKv1.2 (rat) (P63142 whole entry): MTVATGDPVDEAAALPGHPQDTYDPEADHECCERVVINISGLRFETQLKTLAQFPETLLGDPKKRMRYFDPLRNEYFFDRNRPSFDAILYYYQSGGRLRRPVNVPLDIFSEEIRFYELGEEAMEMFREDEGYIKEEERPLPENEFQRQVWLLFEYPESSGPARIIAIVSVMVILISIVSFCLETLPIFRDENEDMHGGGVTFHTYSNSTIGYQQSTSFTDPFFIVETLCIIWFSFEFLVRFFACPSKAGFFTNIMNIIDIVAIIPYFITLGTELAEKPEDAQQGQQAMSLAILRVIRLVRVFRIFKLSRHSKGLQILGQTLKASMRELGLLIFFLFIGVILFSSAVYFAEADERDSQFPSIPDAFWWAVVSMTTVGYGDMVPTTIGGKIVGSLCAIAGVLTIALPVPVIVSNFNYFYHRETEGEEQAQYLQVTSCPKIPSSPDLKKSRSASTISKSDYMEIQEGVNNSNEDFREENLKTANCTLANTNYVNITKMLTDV
Sequence of rKv1.6 (rat) (P17659 whole entry): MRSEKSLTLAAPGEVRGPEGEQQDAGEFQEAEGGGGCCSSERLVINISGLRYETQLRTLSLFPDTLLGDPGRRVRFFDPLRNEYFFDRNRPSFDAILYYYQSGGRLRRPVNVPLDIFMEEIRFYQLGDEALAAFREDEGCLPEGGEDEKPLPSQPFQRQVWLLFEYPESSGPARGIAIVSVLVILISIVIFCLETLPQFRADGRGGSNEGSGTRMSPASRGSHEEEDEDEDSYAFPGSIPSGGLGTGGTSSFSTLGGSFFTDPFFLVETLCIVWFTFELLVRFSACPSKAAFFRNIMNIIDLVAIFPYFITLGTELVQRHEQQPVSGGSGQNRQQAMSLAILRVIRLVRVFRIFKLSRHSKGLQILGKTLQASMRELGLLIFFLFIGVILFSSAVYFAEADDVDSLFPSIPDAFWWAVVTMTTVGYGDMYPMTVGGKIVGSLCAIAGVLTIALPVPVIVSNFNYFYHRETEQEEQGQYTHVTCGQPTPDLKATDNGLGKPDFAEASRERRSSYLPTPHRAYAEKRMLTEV
Sequence of rKv1.1 (rat) (P10499 whole entry): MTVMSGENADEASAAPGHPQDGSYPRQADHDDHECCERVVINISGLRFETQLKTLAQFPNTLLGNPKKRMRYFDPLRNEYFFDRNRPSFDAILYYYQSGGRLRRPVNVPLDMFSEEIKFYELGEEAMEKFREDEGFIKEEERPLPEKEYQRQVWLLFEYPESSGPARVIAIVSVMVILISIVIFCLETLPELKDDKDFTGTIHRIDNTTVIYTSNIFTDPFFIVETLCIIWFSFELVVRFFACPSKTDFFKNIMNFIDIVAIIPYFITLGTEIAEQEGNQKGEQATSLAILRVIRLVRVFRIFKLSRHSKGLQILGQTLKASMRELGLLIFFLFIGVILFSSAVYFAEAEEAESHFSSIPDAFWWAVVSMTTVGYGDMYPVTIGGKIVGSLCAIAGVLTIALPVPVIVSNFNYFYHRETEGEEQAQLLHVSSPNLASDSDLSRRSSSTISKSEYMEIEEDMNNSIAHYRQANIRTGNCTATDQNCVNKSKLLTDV

## Ts6 (from UniProt P59936 23-62) (peptide)
rKv1.3 (rat) [1]
  blocking effect on the K+ current at 1 µM Ts6, two-microelectrode voltage clamp on Xenopus oocytes: 98%
rKv1.2 (rat) [2]
  blocking effect on the K+ current at 1 µM Ts6, two-microelectrode voltage clamp on Xenopus oocytes: 86%
Shaker IR (Drosophila) [3]
  blocking effect on the K+ current at 1 µM Ts6, two-microelectrode voltage clamp on Xenopus oocytes: 79%

## Ts7 (from UniProt P46114 23-59) (peptide)
rKv1.3 (rat) [4]
  blocking effect on the K+ current at 1 µM Ts7, two-microelectrode voltage clamp on Xenopus oocytes: 89%
rKv1.2 (rat) [5]
  blocking effect on the K+ current at 1 µM Ts7, two-microelectrode voltage clamp on Xenopus oocytes: 91%
Shaker IR (Drosophila) [6]
  blocking effect on the K+ current at 1 µM Ts7, two-microelectrode voltage clamp on Xenopus oocytes: 97%
rKv1.1 (rat)
  blocking effect on the K+ current at 1 µM Ts7, two-microelectrode voltage clamp on Xenopus oocytes: 85%
rKv1.6 (rat)
  blocking effect on the K+ current at 1 µM Ts7, two-microelectrode voltage clamp on Xenopus oocytes: 94%

## Ts6 (alpha-KTx12.1, TsTX-IV, butantoxin) (Tityus serrulatus)
His28
  pKa: 5.2
